Target: GST-LcGLO1 (litchi)

## His-PlAvh133 (natural protein)
  enzymatic activity of His-LcGLO1 in vitro (glycolate oxidase assay, H2O2 read at 520 nm, 30°C) with His-PlAvh133 added: 40 % inhibition

— publication PMC13140691
